The values that follow are results of earlier work, collected in US6645518B2, “Uses for medical devices having a lubricious, nitric oxide-releasing coating” (priority 1998, dated 2003).

In the data set the test system is clinical restenosis. The following applies: after balloon angioplasty, systemic administration, six month follow-up.

B1: c7E3: potent anti-platelet agent, GPIIb/IIIa antibody, FDA-approved for use after balloon angioplasty (antibody, chains of the INN, looked up, V domains shown)
VH: EVQLQQSGTVLARPGASVKMSCEASGYTFTNYWMHWVKQRPGQGLEWIGAIYPGNSDTSYIQKFKGKAKLTAVTSTTSVYMELSSLTNEDSAVYYCTLYDGYYVFAYWGQGTLVTVSA
VL: EIVLTQSPVTLSVTPGDSVSLSCRASRDISNNLHWFQQTSHESPRLLIKYASQSMSGIPSRFSGSGSGTDFTLSINSVETEDFGMYFCQQTNSWPYTFGGGTKLEIK
With B1, the “reduction of clinical restenosis” value is on record as 20-30%.
